Reference: US20120270784A1 (THERATECHNOLOGIES, published 2012)

T1: human GRF receptor (human, UniProt Q02643 23-423)
T1 sequence (looked up): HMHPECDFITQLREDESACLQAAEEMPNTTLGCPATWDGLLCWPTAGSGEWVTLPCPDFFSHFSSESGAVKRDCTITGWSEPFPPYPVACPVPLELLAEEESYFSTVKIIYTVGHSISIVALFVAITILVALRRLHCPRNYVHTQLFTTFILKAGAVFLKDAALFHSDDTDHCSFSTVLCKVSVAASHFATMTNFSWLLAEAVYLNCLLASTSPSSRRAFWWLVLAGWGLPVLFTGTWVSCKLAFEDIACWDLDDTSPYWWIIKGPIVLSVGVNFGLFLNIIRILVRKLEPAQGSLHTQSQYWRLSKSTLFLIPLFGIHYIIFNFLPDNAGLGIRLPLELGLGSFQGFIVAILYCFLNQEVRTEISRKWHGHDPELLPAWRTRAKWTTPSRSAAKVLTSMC


molecular target: T1, human GRF receptor; test: cell-based or functional assay

EC50 as assessed by alkaline phosphatase (AP) induction [nM]	Binder
0.25	Ac-YADAIFTDSYRKVLAQLSARKLLQDILSR-NH2 [Ac-YADAIFTDSYRKVLAQLSARKLLQDILSR-NH2 (SEQ ID NO: 43)]
0.13	YADAIFTDSYRKVLAQLKARQDILARAAR (HELM PEPTIDE1{[CC/C=C/CC(=O)[*:2]].Y.A.D.A.I.F.T.D.S.Y.R.K.V.L.A.Q.L.K.A.R.Q.D.I.L.A.R.A.A.R.[am]}$$$$V2.0; SMILES CC/C=C/CC(=O)N[C@@H](Cc1ccc(O)cc1)C(=O)N[C@@H](C)C(=O)N[C@@H](CC(=O)O)C(=O)N[C@@H](C)C(=O)N[C@H](C(=O)N[C@@H](Cc1ccccc1)C(=O)N[C@H](C(=O)N[C@@H](CC(=O)O)C(=O)N[C@@H](CO)C(=O)N[C@@H](Cc1ccc(O)cc1)C(=O)N[C@@H](CCCNC(=N)N)C(=O)N[C@@H](CCCCN)C(=O)N[C@H](C(=O)N[C@@H](CC(C)C)C(=O)N[C@@H](C)C(=O)N[C@@H](CCC(N)=O)C(=O)N[C@@H](CC(C)C)C(=O)N[C@@H](CCCCN)C(=O)N[C@@H](C)C(=O)N[C@@H](CCCNC(=N)N)C(=O)N[C@@H](CCC(N)=O)C(=O)N[C@@H](CC(=O)O)C(=O)N[C@H](C(=O)N[C@@H](CC(C)C)C(=O)N[C@@H](C)C(=O)N[C@@H](CCCNC(=N)N)C(=O)N[C@@H](C)C(=O)N[C@@H](C)C(=O)N[C@@H](CCCNC(=N)N)C(N)=O)[C@@H](C)CC)C(C)C)[C@@H](C)O)[C@@H](C)CC) [Trans-3-hexenoyl-YADAIFTDSYRKVLAQLKARQDILARAAR-NH2 (SEQ ID NO: 26)]
0.19	YADAIFTDSYRKVLAQLSARQDILARAARAAR (HELM PEPTIDE1{[CC/C=C/CC(=O)[*:2]].Y.A.D.A.I.F.T.D.S.Y.R.K.V.L.A.Q.L.S.A.R.Q.D.I.L.A.R.A.A.R.A.A.R.[am]}$$$$V2.0; SMILES CC/C=C/CC(=O)N[C@@H](Cc1ccc(O)cc1)C(=O)N[C@@H](C)C(=O)N[C@@H](CC(=O)O)C(=O)N[C@@H](C)C(=O)N[C@H](C(=O)N[C@@H](Cc1ccccc1)C(=O)N[C@H](C(=O)N[C@@H](CC(=O)O)C(=O)N[C@@H](CO)C(=O)N[C@@H](Cc1ccc(O)cc1)C(=O)N[C@@H](CCCNC(=N)N)C(=O)N[C@@H](CCCCN)C(=O)N[C@H](C(=O)N[C@@H](CC(C)C)C(=O)N[C@@H](C)C(=O)N[C@@H](CCC(N)=O)C(=O)N[C@@H](CC(C)C)C(=O)N[C@@H](CO)C(=O)N[C@@H](C)C(=O)N[C@@H](CCCNC(=N)N)C(=O)N[C@@H](CCC(N)=O)C(=O)N[C@@H](CC(=O)O)C(=O)N[C@H](C(=O)N[C@@H](CC(C)C)C(=O)N[C@@H](C)C(=O)N[C@@H](CCCNC(=N)N)C(=O)N[C@@H](C)C(=O)N[C@@H](C)C(=O)N[C@@H](CCCNC(=N)N)C(=O)N[C@@H](C)C(=O)N[C@@H](C)C(=O)N[C@@H](CCCNC(=N)N)C(N)=O)[C@@H](C)CC)C(C)C)[C@@H](C)O)[C@@H](C)CC) [Trans-3-hexenoyl-YADAIFTDSYRKVLAQLSARQDILARAARAAR-NH2 (SEQ ID NO: 27)]
0.11	YXDAIFTDSYRKVLAQLKARQDILARAARAAR (HELM PEPTIDE1{Y.[dA].D.A.I.F.T.D.S.Y.R.K.V.L.A.Q.L.K.A.R.Q.D.I.L.A.R.A.A.R.A.A.R.[am]}$$$$V2.0; N-terminus assumed; SMILES CC[C@H](C)[C@H](NC(=O)[C@H](C)NC(=O)[C@H](CC(=O)O)NC(=O)[C@@H](C)NC(=O)[C@@H](N)Cc1ccc(O)cc1)C(=O)N[C@@H](Cc1ccccc1)C(=O)N[C@H](C(=O)N[C@@H](CC(=O)O)C(=O)N[C@@H](CO)C(=O)N[C@@H](Cc1ccc(O)cc1)C(=O)N[C@@H](CCCNC(=N)N)C(=O)N[C@@H](CCCCN)C(=O)N[C@H](C(=O)N[C@@H](CC(C)C)C(=O)N[C@@H](C)C(=O)N[C@@H](CCC(N)=O)C(=O)N[C@@H](CC(C)C)C(=O)N[C@@H](CCCCN)C(=O)N[C@@H](C)C(=O)N[C@@H](CCCNC(=N)N)C(=O)N[C@@H](CCC(N)=O)C(=O)N[C@@H](CC(=O)O)C(=O)N[C@H](C(=O)N[C@@H](CC(C)C)C(=O)N[C@@H](C)C(=O)N[C@@H](CCCNC(=N)N)C(=O)N[C@@H](C)C(=O)N[C@@H](C)C(=O)N[C@@H](CCCNC(=N)N)C(=O)N[C@@H](C)C(=O)N[C@@H](C)C(=O)N[C@@H](CCCNC(=N)N)C(N)=O)[C@@H](C)CC)C(C)C)[C@@H](C)O) [Y-a-DAIFTDSYRKVLAQLKARQDILARAARAAR-NH2 (SEQ ID NO: 28)]
0.18	YXDAIFTDSYRKVLAQLKARQDLLARAARAAR (HELM PEPTIDE1{Y.[dA].D.A.I.F.T.D.S.Y.R.K.V.L.A.Q.L.K.A.R.Q.D.L.L.A.R.A.A.R.A.A.R.[am]}$$$$V2.0; N-terminus assumed; SMILES CC[C@H](C)[C@H](NC(=O)[C@H](C)NC(=O)[C@H](CC(=O)O)NC(=O)[C@@H](C)NC(=O)[C@@H](N)Cc1ccc(O)cc1)C(=O)N[C@@H](Cc1ccccc1)C(=O)N[C@H](C(=O)N[C@@H](CC(=O)O)C(=O)N[C@@H](CO)C(=O)N[C@@H](Cc1ccc(O)cc1)C(=O)N[C@@H](CCCNC(=N)N)C(=O)N[C@@H](CCCCN)C(=O)N[C@H](C(=O)N[C@@H](CC(C)C)C(=O)N[C@@H](C)C(=O)N[C@@H](CCC(N)=O)C(=O)N[C@@H](CC(C)C)C(=O)N[C@@H](CCCCN)C(=O)N[C@@H](C)C(=O)N[C@@H](CCCNC(=N)N)C(=O)N[C@@H](CCC(N)=O)C(=O)N[C@@H](CC(=O)O)C(=O)N[C@@H](CC(C)C)C(=O)N[C@@H](CC(C)C)C(=O)N[C@@H](C)C(=O)N[C@@H](CCCNC(=N)N)C(=O)N[C@@H](C)C(=O)N[C@@H](C)C(=O)N[C@@H](CCCNC(=N)N)C(=O)N[C@@H](C)C(=O)N[C@@H](C)C(=O)N[C@@H](CCCNC(=N)N)C(N)=O)C(C)C)[C@@H](C)O) [Y-a-DAIFTDSYRKVLAQLKARQDLLARAARAAR-NH2 (SEQ ID NO: 30)]
0.08	YXDAIFTDSYRKVLAQLKLRQDILARAARAAR (HELM PEPTIDE1{Y.[dA].D.A.I.F.T.D.S.Y.R.K.V.L.A.Q.L.K.L.R.Q.D.I.L.A.R.A.A.R.A.A.R.[am]}$$$$V2.0; N-terminus assumed; SMILES CC[C@H](C)[C@H](NC(=O)[C@H](C)NC(=O)[C@H](CC(=O)O)NC(=O)[C@@H](C)NC(=O)[C@@H](N)Cc1ccc(O)cc1)C(=O)N[C@@H](Cc1ccccc1)C(=O)N[C@H](C(=O)N[C@@H](CC(=O)O)C(=O)N[C@@H](CO)C(=O)N[C@@H](Cc1ccc(O)cc1)C(=O)N[C@@H](CCCNC(=N)N)C(=O)N[C@@H](CCCCN)C(=O)N[C@H](C(=O)N[C@@H](CC(C)C)C(=O)N[C@@H](C)C(=O)N[C@@H](CCC(N)=O)C(=O)N[C@@H](CC(C)C)C(=O)N[C@@H](CCCCN)C(=O)N[C@@H](CC(C)C)C(=O)N[C@@H](CCCNC(=N)N)C(=O)N[C@@H](CCC(N)=O)C(=O)N[C@@H](CC(=O)O)C(=O)N[C@H](C(=O)N[C@@H](CC(C)C)C(=O)N[C@@H](C)C(=O)N[C@@H](CCCNC(=N)N)C(=O)N[C@@H](C)C(=O)N[C@@H](C)C(=O)N[C@@H](CCCNC(=N)N)C(=O)N[C@@H](C)C(=O)N[C@@H](C)C(=O)N[C@@H](CCCNC(=N)N)C(N)=O)[C@@H](C)CC)C(C)C)[C@@H](C)O) [Y-a-DAIFTDSYRKVLAQLKLRQDILARAARAAR-NH2 (SEQ ID NO: 29)]
